Measured values from patent publication EP4361176A1 (CHUGAI SEIYAKU KABUSHIKI KAISHA, dated 2024).
Residue numbers refer to the chain shown, from its start. In names and notes the source's numbering stands.

T1: human FcγRIIa H extracellular domain (human, UniProt P12318 34-217)
T1 construct: extracellular domain; Made by the method of WO2014104165; also called hFcγR IIa H; FcyRIIaH
T1 sequence (looked up): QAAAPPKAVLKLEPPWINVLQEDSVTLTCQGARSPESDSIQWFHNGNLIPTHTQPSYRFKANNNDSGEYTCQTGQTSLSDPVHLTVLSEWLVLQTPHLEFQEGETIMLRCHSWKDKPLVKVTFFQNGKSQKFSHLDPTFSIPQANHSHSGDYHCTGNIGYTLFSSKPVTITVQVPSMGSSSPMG

T2: hFcyRIIaH on hFcyRIIaH-expressing Jurkat cells (human, UniProt P12318 34-317)
T2 sequence (looked up): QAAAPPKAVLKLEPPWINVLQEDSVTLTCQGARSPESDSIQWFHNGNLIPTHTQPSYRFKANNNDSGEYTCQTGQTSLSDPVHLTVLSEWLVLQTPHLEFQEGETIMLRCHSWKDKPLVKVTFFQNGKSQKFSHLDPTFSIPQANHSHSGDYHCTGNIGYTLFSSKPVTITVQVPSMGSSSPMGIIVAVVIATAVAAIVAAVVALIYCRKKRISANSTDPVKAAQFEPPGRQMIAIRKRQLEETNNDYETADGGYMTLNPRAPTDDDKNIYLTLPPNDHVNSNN

B1: H240-Kn496/L73-k0//H240-Hl516/L73-k0 (antibody, human IgG1, kappa)
heavy 1: QDQLVQSGAEVKKPGASVKVSCKASGFNIKDTYIQWVRQAPGQGLEWMGRIDPLRKQTKYREKFEGRVTITADTSTNTAYMELSSLRSEDTAVYYCVRSGREFDYWGQGTLVTVSSASTKGPSVFPLAPSSKSTSGGTAALGCLVKDYFPEPVTVSWNSGALTSGVHTFPAVLQSSGLYSLSSVVTVPSSSLGTQTYICNVNHKPSNTKVDKKVEPKSCDKTHTCPPCPAPEFQWGPMVFLFPPKPKDVLMISRTPEVTCVVVDVSDEEPEVKFNWYVDGVEVHNAKTKPREEQYNATYRVVSVLPVLHQDWLNGKEYKCKVSNKALPAPIEKTISKAKGQPREPQVCTLPPSRDELTKNQVSLWCLVKGFYPSDIAVEWESNGQPENNYKTTPPVLDSDGSFFLYSKLTVDKSRWQQGNVFSCSVMHEALHNHYTQKSLSLSP
heavy 2: QDQLVQSGAEVKKPGASVKVSCKASGFNIKDTYIQWVRQAPGQGLEWMGRIDPLRKQTKYREKFEGRVTITADTSTNTAYMELSSLRSEDTAVYYCVRSGREFDYWGQGTLVTVSSASTKGPSVFPLAPSSKSTSGGTAALGCLVKDYFPEPVTVSWNSGALTSGVHTFPAVLQSSGLYSLSSVVTVPSSSLGTQTYICNVNHKPSNTKVDKKVEPKSCDKTHTCPPCPAPELLGGPSVFLFPPKPKDVLMISRTPEVTCVVVDVSHEEPEVKFNWYVDGVEVHNAKTKPREEQYNATYRVVSVLPVLHQDWLNGKEYKCKVSNDALPAPIEETISKAKGQPREPQVYTLPPSRCELTKNQVSLSCAVKGFYPSDIAVEWESNGQPENNYKTTPPVLDSDGSFFLVSKLTVDKSRWQQGNVFSCSVMHEALHNHYTQKSLSLSP
light: DIQMTQSPSSLSASVGDRVTITCRASQDIHKYIAWYQQKPGQAPRLLIQYTSTLQPGVPSRFSGSGSGTDYTFTISSLQPEDIATYYCLQYEQLRTFGGGTKVEIKRTVAAPSVFIFPPSDEQLKSGTASVVCLLNNFYPREAKVQWKVDNALQSGNSQESVTEQDSKDSTYSLSSTLTLSKADYEKHKVYACEVTHQGLSSPVTKSFNRGEC
notes: also called EGL-ART11; ART11
B2: H240-G1d/L73-k0 (antibody, human IgG1, kappa)
heavy: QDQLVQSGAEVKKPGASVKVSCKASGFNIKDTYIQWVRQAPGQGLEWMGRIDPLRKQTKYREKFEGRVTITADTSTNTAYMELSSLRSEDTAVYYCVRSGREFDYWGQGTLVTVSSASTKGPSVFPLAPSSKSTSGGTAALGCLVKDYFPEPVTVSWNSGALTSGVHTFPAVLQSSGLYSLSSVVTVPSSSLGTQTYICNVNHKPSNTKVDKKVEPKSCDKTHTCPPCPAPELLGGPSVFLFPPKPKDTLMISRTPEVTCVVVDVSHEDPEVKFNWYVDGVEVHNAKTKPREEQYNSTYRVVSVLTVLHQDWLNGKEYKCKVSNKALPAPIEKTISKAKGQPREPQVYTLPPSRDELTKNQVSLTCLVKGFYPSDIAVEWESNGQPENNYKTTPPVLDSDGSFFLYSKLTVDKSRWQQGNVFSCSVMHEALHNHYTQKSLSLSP
light: B1 light
notes: Anti-human Epiregulin antibody with the human IgG1 constant region G1d (C-terminal Gly and Lys removed); the text gives 279; also called EGL-G1d
B3: H240-Kn032/L73-k0//H240-Hl032/L73-k0 (antibody, human IgG1, kappa)
heavy 1: QDQLVQSGAEVKKPGASVKVSCKASGFNIKDTYIQWVRQAPGQGLEWMGRIDPLRKQTKYREKFEGRVTITADTSTNTAYMELSSLRSEDTAVYYCVRSGREFDYWGQGTLVTVSSASTKGPSVFPLAPSSKSTSGGTAALGCLVKDYFPEPVTVSWNSGALTSGVHTFPAVLQSSGLYSLSSVVTVPSSSLGTQTYICNVNHKPSNTKVDKKVEPKSCDKTHTCPPCPAPELLGGPDVFLFPPKPKDTLMISRTPEVTCVVVDVSHEDPEVKFNWYVDGVEVHNAKTKPREEQYNSTYRVVSVLTVLHQDWLNGKEYKCKVSNKALPLPEEKTISKAKGQPREPQVCTLPPSRDELTKNQVSLWCLVKGFYPSDIAVEWESNGQPENNYKTTPPVLDSDGSFFLYSKLTVDKSRWQQGNVFSCSVMHEALHNHYTQKSLSLSP
heavy 2: B3 heavy 1 with C348Y, D355C, W365S, L367A, Y406V
light: B1 light
notes: also called EGL-SDALIE; SDALIE
B4: H240-GASDALIE/L73-k0 (antibody, human IgG1, kappa)
heavy: B3 heavy 1 with G235A, C348Y, W365T
light: B1 light
B5: H240-Kn494/L73-k0//H240-Hl514/L73-k0 (antibody, human IgG1, kappa)
heavy 1: B1 heavy 1 with I331E
heavy 2: B1 heavy 2 with I331E
light: B1 light
notes: '1332E' read as I332E; also called EGL-ART10; ART10
B6: H240-Kn456/L73-k0//H240-Hl446/L73-k0 (antibody, human IgG1, kappa)
heavy 1: B1 heavy 1 with A329M, I331E
heavy 2: B1 heavy 2 with G235A, A329M, I331E
light: B1 light
notes: also called EGL-ART4; ART4
B7: H240-Kn462/L73-k0//H240-Hl441/L73-k0 (antibody, human IgG1, kappa)
heavy 1: B1 heavy 1 with K325D
heavy 2: B1 heavy 2 with G235A
light: B1 light
notes: also called EGL-ART5; ART5
B8: H240-Kn462/L73-k0//H240-Hl445/L73-k0 (antibody, human IgG1, kappa)
heavy 1: B1 heavy 1 with K325D
heavy 2: B1 heavy 2 with G235A, A329K, I331D
light: B1 light
notes: also called EGL-ART6; ART6
B9: H240-Kn461/L73-k0//H240-Hl443/L73-k0 (antibody, human IgG1, kappa)
heavy 1: B1 heavy 1 with K325D, I331E
heavy 2: B1 heavy 2 with G235A, I331E
light: B1 light
notes: also called EGL-ART8; ART8
B10: H240-Kn498/L73-k0//H240-Hl518/L73-k0 (antibody, human IgG1, kappa)
heavy 1: B1 heavy 1 with A329M
heavy 2: B1 heavy 2 with A329M
light: B1 light
notes: also called EGL-ART12; ART12
B11: H240-Kn443/L73-k0//H240-Hl408/L73-k0 (antibody, human IgG1, kappa)
heavy 1: B1 heavy 1 with V249T, P306T, K325D
heavy 2: B1 heavy 2 with G235A, V249T, P306T
light: B1 light
notes: also called EGL-ART3; ART3
B12: H240-Kn120/L73-k0//H240-Hl068/L73-k0 (antibody, human IgG1, kappa)
heavy 1: B1 heavy 1 with F233Y, Q234Y, V249T, E269D, P306T, A326D
heavy 2: B1 heavy 2 with V249T, A297S, P306T, A329K
light: B1 light
notes: also called EGL-ART2; ART2
B13: H240-Kn125/L73-k0//H240-Hl076/L73-k0 (antibody, human IgG1, kappa)
heavy 1: B1 heavy 1 with F233Y, V249T, P306T
heavy 2: B1 heavy 2 with V249T, A297S, P306T, A329M
light: B1 light
notes: Heterodimerized anti-human Epiregulin antibody, asymmetric Fc variant; also called EGL-ART1; ART1

Molecular target: T3, human FcγRIIIa F extracellular domain (human, UniProt P08637 17-208)
T3 construct: extracellular domain; Made by the method of WO2014104165; also called hFcγR IIIa F; FcyRIIIaF
T3 sequence (P08637 17-208): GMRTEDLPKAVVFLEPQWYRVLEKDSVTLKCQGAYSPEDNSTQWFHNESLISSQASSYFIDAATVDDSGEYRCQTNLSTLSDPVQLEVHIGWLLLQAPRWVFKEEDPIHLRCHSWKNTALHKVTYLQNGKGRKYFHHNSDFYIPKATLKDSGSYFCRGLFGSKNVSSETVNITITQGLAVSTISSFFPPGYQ
Experiment: SPR; KD for FcγRIIb divided by KD for this FcγR

In order of rising “A/I ratio (KD for FcγRIIb divided by KD for each FcyR)” value:
1. B2  3.4
2. B12  68.4
3. B4  89.3
4. B3  98.7
5. B11  396
6. B7  399
7. B1  694
8. B8  976
9. B9  2350
10. B5  3160
11. B10  4310
12. B13  4950
13. B6  9940

Molecular target: T1, human FcγRIIa H extracellular domain
Experiment: SPR; KD for FcγRIIb divided by KD for this FcγR

In order of rising “A/I ratio (KD for FcγRIIb divided by KD for each FcyR)” value:
1. B3  2.2
2. B12  5.8
3. B2  8.9
4. B4  16.5
5. B5  17.3
6. B9  47.2
7. B13  47.4
8. B10  60.3
9. B1  63.3
10. B6  65.2
11. B11  181
12. B7  240
13. B8  307

Molecular target: T2, hFcyRIIaH on hFcyRIIaH-expressing …
Experiment: cell-based or functional assay

In order of rising “EC50 value (µg/mL), ADCP reporter bioassay (fold induction of luminescence), Hepa1-6/hEREG target cells” value:
1. B11  0.0158 µg/mL
2. B9  0.0171 µg/mL
3. B8  0.0192 µg/mL
4. B12  0.0218 µg/mL
5. B7  0.0245 µg/mL
6. B4  0.0324 µg/mL
7. B13  0.0353 µg/mL
8. B1  0.0367 µg/mL
9. B5  0.0419 µg/mL
10. B6  0.0432 µg/mL
11. B10  0.085 µg/mL

Molecular target: hFcyRIIIaV on hFcyRIIIaV-expressing Jurkat cells (human, UniProt P08637 17-254)
Sequence (P08637 17-254): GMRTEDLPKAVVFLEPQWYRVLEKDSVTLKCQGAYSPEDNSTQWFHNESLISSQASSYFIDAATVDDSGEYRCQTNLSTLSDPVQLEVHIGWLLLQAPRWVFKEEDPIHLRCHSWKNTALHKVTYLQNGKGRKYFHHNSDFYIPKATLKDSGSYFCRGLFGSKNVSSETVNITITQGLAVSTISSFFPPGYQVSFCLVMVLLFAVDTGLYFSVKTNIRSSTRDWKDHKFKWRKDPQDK
Experiment: cell-based or functional assay

In order of rising “EC50 value (µg/mL), ADCC reporter bioassay (fold induction of luminescence), Hepa1-6/hEREG target cells” value:
1. B5  0.000107 µg/mL
2. B10  0.000304 µg/mL
3. B1  0.000413 µg/mL
4. B13  0.000716 µg/mL
5. B6  0.000789 µg/mL
6. B9  0.00107 µg/mL
7. B12  0.00135 µg/mL
8. B8  0.0015 µg/mL
9. B11  0.00153 µg/mL
10. B7  0.00167 µg/mL
11. B3  0.00178 µg/mL
12. B4  0.00208 µg/mL
13. B2  0.0463 µg/mL
